# Reference: patent US20120102593
# B1: histone deacetylase OsHDT1 (protein)
# chain: MEFWGLEVKPGQTVKCEPEDERFLHLSQAALGESKKGSDNAVMYVKTDDQKLVIGTLSADKFPQIQFDLVFDKEFELSHTSKTASVFFSGYKVSQPAEEDEMDFDSEEVEDEEEEEKIIPAPRANGKVEGKENEQKKQGKTDSSASKSKAAVNDDDDDDDSAEDDSQDEDLSPEDDDDDSSEDDSSEDDEDESDEEDTPKKPETGKRKVAEIVLKTPSSDKKAKIATPSGQKTGDKKGVHVATPHPAKQASKTPVNDKSKEKSPKSGGGSISCKSCSKTFNSEMALQSHSKAKHPAK
# Target: histone H4 (rice, extracted from leaves)
protein,measurement,value
B1,"Western blotting of histone extracted from transgenic and wild-type parent and hybrid OsHDT1 plants, using commercial antibodies against histone modifications",HDT1 was capable of deacetylating histone and as such is a histone deacetylase mainly acting at H4K16 site
